Test in all cases: fluorescence polarisation
For orientation: Polarisation of emitted light reports the rotation of a fluorescent probe.

The target in test [1] is human mitochondrial Hsp70 (mtHsp70), wild-type (human, UniProt P38646 47-679).
The target in test [2] is human mtHsp70 R126W PD variant (human, UniProt P38646 47-679, R126W).
Test [3] addresses human mtHsp70 P509S PD variant (human, UniProt P38646 47-679, P509S).

Data on 1 molecule can be found in article PMC3392108 (Human Molecular Genetics, 2012).

In general, Kd refers to the free concentration of one partner at which half of the binding sites on the other are occupied at equilibrium, for simple one-to-one binding. Read a high Kd as a looser complex.

Where no end group is shown, it is not given here.

Sequence of human mtHsp70 P509S PD variant (P38646 47-679 P509S): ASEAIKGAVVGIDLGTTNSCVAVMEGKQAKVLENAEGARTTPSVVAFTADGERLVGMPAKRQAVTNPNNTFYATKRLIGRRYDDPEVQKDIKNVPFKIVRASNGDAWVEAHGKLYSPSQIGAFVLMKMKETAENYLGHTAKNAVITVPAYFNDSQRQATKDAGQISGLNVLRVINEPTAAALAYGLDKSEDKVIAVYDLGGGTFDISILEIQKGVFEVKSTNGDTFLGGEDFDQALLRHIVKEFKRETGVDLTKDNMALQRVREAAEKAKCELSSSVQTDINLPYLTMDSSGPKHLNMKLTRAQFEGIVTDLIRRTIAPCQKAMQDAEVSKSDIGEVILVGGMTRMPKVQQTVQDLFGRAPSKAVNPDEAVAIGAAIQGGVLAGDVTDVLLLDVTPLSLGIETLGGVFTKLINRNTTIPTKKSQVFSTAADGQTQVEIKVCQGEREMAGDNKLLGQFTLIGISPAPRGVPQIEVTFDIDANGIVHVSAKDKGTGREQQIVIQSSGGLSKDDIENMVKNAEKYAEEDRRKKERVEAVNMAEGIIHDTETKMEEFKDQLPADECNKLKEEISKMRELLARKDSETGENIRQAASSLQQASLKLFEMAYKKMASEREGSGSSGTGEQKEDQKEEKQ
Sequence of human mitochondrial Hsp70 (mtHsp70), wild-type (P38646 47-679): as the sequence (P38646 47-679 P509S) above, with S463P counted along it
Sequence of human mtHsp70 R126W PD variant (P38646 47-679 R126W): as the sequence (P38646 47-679 P509S) above, with R80W, S463P counted along it

In the case of ALLLSAPRR (also: fluorescein label, position not given here) [fluorescein-labeled P5 peptide (F-P5)], the equilibrium dissociation constant (Kd) amounted to 15.6 ± 1.4 µM in test [1], 13.6 ± 2.7 µM in test [2] and 15.7 ± 1.9 µM in test [3].
